{
  "source": "patent US20100256040A1",
  "about": "(priority 2001, published 2010)",
  "biological_target": "T1, interaction between GST-p6 and myc-Tsg101(1-207) (Homo sapiens, UniProt Q99816)",
  "T1 construct": "myc-tagged Tsg101 (residues 1-207); made in house; host or cells: Drosophila S2 cells, with Tsg101 used as crude cell lysate",
  "T1 sequence (Q99816 1-207)": "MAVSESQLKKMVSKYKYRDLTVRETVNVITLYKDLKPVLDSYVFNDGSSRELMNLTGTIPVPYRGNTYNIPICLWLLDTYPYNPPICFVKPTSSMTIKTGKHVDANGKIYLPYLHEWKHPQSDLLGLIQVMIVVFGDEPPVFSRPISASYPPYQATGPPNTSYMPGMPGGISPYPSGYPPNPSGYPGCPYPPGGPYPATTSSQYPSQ",
  "assay": "Competitive inhibition of GST-p6 : myc-Tsg101(1-207) binding on plates (fluorescence detection)",
  "conditions": "competitive inhibition curve, FIG. 1",
  "description": "A fusion protein with a GST tag fused to the HIV-1 GAGp6 domain was recombinantly expressed and purified by chromatography. In addition, a GAGp6 peptide containing the first 14 amino acid residues (“p6(1-14)”) was synthesized chemically by standard peptide synthesis methods. The peptide was purified by conventional protein purification techniques, e.g., by chromatography.\nNunc/Nalgene Maxisorp plates were incubated overnight at 4° C. or for 1-2 hrs at room temperature in 100 μl of a protein coupling solution containing purified GST-p6 and 50 mM Carbonate, pH=9.6. This allowed the attachment of the GST-p6 fusion protein to the plates. Liquids in the plates were then emptied and wells filled with 400 μl/well of a blocking buffer (SuperBlock; Pierce-Endogen, Rockford, Ill.). […]\nPlates were then washed 4×100 μl with 1×PBST solution (Invitrogen; Carlsbad, Calif.). […] Plates were then read on a Packard Fusion instrument at an excitation wavelength of 325 nm and an emission wavelength of 420 nm. […]\nDifferent concentrations of the p6(1-14) peptide were tested, and the relative intensities of the fluorescence signals obtained at different concentrations were plotted against the peptide concentrations. […]",
  "data": [
    {"substance": "p6(1-14): chemically synthesized GAGp6 peptide containing the first 14 amino acid residues (LQSRPEPTAPPEES)", "values": [
      {"measurement": "inhibition of protein-protein interaction between GST-p6 and myc-Tsg101(1-207)", "value": "capable of inhibiting protein-protein interaction"}
    ]}
  ]
}
